Assay [1] addresses T1, CFC-1.
T1 construct: Positive control for anti-citrulline reactivity; also called cfc1 XG; Cfc1-peptide
The assay is described as follows: ELISA, Ab 0.000128 ug/well. On the procedure: (§1) Biotin and citrulline-containing peptides derived from fibrinogen and vimentin were immobilized on NEUTRAVIDIN®-coated 96-well ELISA plates (0.3 μg/well). CFC-1 and CFC-0 were coated at the same concentration and served as positive and negative controls, respectively, for specific anti-citrulline reactivity and as coating controls. Non-coated wells were used to test for aspecific binding of the antibodies. […] Detection of bound anti-citrulline antibodies was performed by incubating the wells with rabbit anti-human HRP (1:2000) for 1 hour at RT followed by incubation with TMB substrate. The resulting OD (y-axis) is a measure for antibody binding.
(§2) Biotin-labeled and citrulline-containing fibrinogen and vimentin peptides (Table 5) were also tested for reactivity with the therapeutic antibodies. Peptides were coated on 96-well NEUTRAVIDIN®-ELISA plates.

Assay [2] concerns the target T2, huFibα XH (human, X at position 15 = citrulline; biotin-labelled).
T2 peptide: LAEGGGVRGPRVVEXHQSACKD
The assay is described as follows: ELISA, Ab 0.000128 ug/well. The method, then: as §1, §2
(ELISA stands for enzyme-linked immunosorbent assay.)

Assay [3] has as its target T3, msFibβ XG (mouse, also: biotin-labelled).
T3 construct: also called mouse fibrinogen β peptide
T3 peptide: EPTDSLDA[Cit]GHRPVDRR
The assay is described as follows: ELISA, Ab 0.000128 ug/well. The method, then: as §1, §2

Assay [4] addresses T4, msFibα XH (mouse, X at position 15 = citrulline; biotin-labelled).
T4 peptide: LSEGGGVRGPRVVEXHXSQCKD
Put plainly: ELISA, Ab 0.4 ug/well. On the procedure:
as §1, §2

In assay [5] the target is T1, CFC-1. The assay is described as follows: ELISA, Ab 0.4 ug/well. On the procedure: as §1, §2
Assay [6] has as its target T2, huFibα XH. Put plainly: ELISA, Ab 0.4 ug/well. The method, then:
as §1, §2

The target in assay [7] is T3, msFibβ XG. The assay is described as follows: ELISA, Ab 0.4 ug/well. The method, then:
as §1, §2

Assay [8] concerns the target T5, huFibα XG (human, X at position 8 = citrulline; biotin-labelled).
T5 peptide: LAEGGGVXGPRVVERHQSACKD
The assay is described as follows: ELISA, Ab 0.4 ug/well. On the procedure: as §1, §2

Assay [9] deals with T6, msVim XS/XL (mouse, also: biotin-labelled).
T6 construct: also called mouse vimentin peptide
T6 peptide: YVT[Cit]SSAV[Cit]L[Cit]SSVP
Put plainly: ELISA, Ab 0.4 ug/well. The method, then: as §1, §2

The target of assay [10] is T7, msFibα XG (mouse, X at position 8 = citrulline; biotin-labelled).
T7 peptide: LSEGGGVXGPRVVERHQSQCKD
Put plainly: ELISA, Ab 0.4 ug/well. On the procedure: as §1, §2

Assay [11] concerns the target T4, msFibα XH. Put plainly: ELISA, Ab 10 ug/well. The method, then: as §1, §2
Assay [12] has as its target T1, CFC-1. The assay is described as follows: ELISA, Ab 10 ug/well. The method, then: as §1, §2
Assay [13] addresses T2, huFibα XH. Put plainly: ELISA, Ab 10 ug/well. On the procedure: as §1, §2
Assay [14] has as its target T3, msFibβ XG. The assay is described as follows: ELISA, Ab 10 ug/well. The method, then:
as §1, §2

In assay [15] the target is T5, huFibα XG. Put plainly: ELISA, Ab 10 ug/well. On the procedure: as §1, §2
The target in assay [16] is T6, msVim XS/XL. Put plainly: ELISA, Ab 10 ug/well. The method, then:
as §1, §2

Assay [17] concerns the target T7, msFibα XG. The assay is described as follows: ELISA, Ab 10 ug/well. On the procedure:
as §1, §2

This passage reports OD results from patent US20150307603A1 (MODIQUEST B V, published 2015).

Non-standard residues stand in square brackets, D forms with d. No end group written: not given here. Cit = NC(=O)NCCC[C@H](N)C(=O)O

B1: RhmAb2.102 (antibody, human IgG1, lambda)
heavy: not shown
light: QSVLTQPPSMSAAPGQKVTISCSGSSSNIGNNYVSWYQQVPGTAPKLLIYDDNKRPSGIPGRFSGSKSATSATLGITGLQAGDEADYYCGSWDDNLSVVLFGGGTKLTVLGQPKAAPSVTLFPPSSEELQANKATLVCLISDFYPGAVTVAWKADSSPVKAGVETTTPSKQSNNKYAASSYLSLTPEQWKSHRSYSCQVTHEGSTVEKTVAPTECS
notes: Human IgG1 lambda; also called Rhm2.102
Take B1: the OD amounted to 0.288 OD450 with CFC-1 [1]; 0.12 OD450 in the assay with huFibα XH [2]; 0.118 OD450 with msFibβ XG [3]; 0.076 OD450 with msFibα XH [4]; 3.79 OD450 with CFC-1 [5]; 0.09 OD450 with huFibα XH [6]. In addition, the OD came to 1.67 OD450 with msFibβ XG [7]; 0.521 OD450 in the assay with huFibα XG [8]; 1.45 OD450 with msVim XS/XL [9]; 0.773 OD450 with msFibα XG [10]; 0.154 OD450 with msFibα XH [11]; 3.89 OD450 in the assay with CFC-1 [12]. For the same molecule, the OD in the assay with huFibα XH [13] was 0.179 OD450; with msFibβ XG [14], 3.8 OD450; in the assay with huFibα XG [15] it was 2.73 OD450; with msVim XS/XL [16], 3.69 OD450; in the assay with msFibα XG [17] it was 3.03 OD450.
